The text below walks through data of patent US20170292963A1.

The target of the assay is Mouse BACE1 (beta amyloid precursor protein cleavage enzyme 1), native protein in mouse brain lysate or neurons (mouse) (UniProt P56818). Briefly: cell-based or functional assay.
Sequence of Mouse BACE1 (beta amyloid precursor protein cleavage enzyme 1), native protein in mouse brain lysate or neurons (mouse) (P56818 46-501 limits assumed): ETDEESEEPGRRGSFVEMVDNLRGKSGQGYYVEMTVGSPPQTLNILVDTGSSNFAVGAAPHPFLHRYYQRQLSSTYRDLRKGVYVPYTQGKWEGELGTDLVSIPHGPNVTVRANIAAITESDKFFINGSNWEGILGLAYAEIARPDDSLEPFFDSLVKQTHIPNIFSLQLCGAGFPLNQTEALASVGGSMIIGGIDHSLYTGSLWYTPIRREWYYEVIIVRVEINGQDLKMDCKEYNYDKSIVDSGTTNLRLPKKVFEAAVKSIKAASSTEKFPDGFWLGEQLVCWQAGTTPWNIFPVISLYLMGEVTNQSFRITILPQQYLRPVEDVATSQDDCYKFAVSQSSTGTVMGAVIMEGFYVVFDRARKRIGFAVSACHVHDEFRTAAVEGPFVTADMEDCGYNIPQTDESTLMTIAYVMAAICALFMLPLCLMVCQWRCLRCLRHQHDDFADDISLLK

Substance “Mouse NPTX1 (Neuronal Pentraxin 1), native protein in mouse brain lysate or neurons (from UniProt Q62443 23-432)” registered a BACE1 internalized within 12 min at 37 C as percent of surface expression, NPTX1-/- neurons (surface biotinylation assay) of 95%; a BACE1 internalized within 12 min at 37 C as percent of surface expression, WT neurons (surface biotinylation assay) of 37.5%; a hAβ40 in media of hAPP/NPTX1-/- neurons compared to hAPP neurons (ELISA) of 2 fold.
